B1: CarDNt, the 179-residue N-terminal domain of Myxococcus xanthus CarD (in pKT25) [Myxococcus xanthus] / Mxβ_(19–148), M. xanthus RNA polymerase β subunit fragment spanning residues 19 to 148 (in pUT18C) [Myxococcus xanthus] (parent complex)
chain 1: MPEGSASLQLAVGDRVVYPNQGVCRVSAIDVKEVAGQKLTFVTMRREEDGAVVMVPEGKVLAIGVRKVASAEDVEAIFTFLRSDSDKADLDWKQRARTNLDRMTQGGIMGLAEVVKGLQVLSELRPLPTKERELYDNARHLLVTEVAAALGTAEVNAEDAIDIVLFPPGRERPKRTAAE
chain 2: AKIIDIPNLINIQKQSYEKFLQADIAADKREDLGLQGVFKSVFPIRDFNETSSLEFVSYHLERPKYDVDECHQRGMTYSAPIKVVVRLVVWDKDEETGAQSIRDVKEQEVYFGEIPLMTQNGTFIINGTE

Response data for 7 variants are collected here from publication PMC4374960 (2015).

One experiment covers variants of B1. In words: BACTH analysis (β-Gal activity); Mxβ19–148 mutants in pUT18C; CarDNt in pKT25; mean and standard error of three independent experiments; parent: 2.6e+03; read off a plot.
As for chain 2 V105A, the response was roughly 610.
chain 2 K106A: the response is roughly 2100.
Regarding chain 2 D104A, the response was roughly 1800.
On the same count and under the same terms, the same measure for chain 2 E107A: roughly 90.

The variants in a further experiment derive from B1. The experiment in a line: BACTH analysis (β-Gal activity); CarDNt mutants in pKT25; Mxβ19–148 in pUT18C; mean and standard error of three independent experiments; parent: 2.7e+03; read off a plot.
Consider chain 1 P56A, for which the response was roughly 230.
Turning to chain 1 M54A, the response was roughly 130.
On the same count and under the same terms, to chain 1 F41A belongs roughly 130.
